The results in this text go back to article PMC12232321.

As usually defined, the stoichiometry N is the number of molecules, sites or subunits per partner or assembly.

Assay [1] has as its target LOV1-C57M-SL-LOV2-C250A fusion protein (short linker) (UniProt Q8LPD9). The assay is described as follows: crystal structure; fusion protein pre-irradiated with blue light and reoxidised (FMN^·-Met/FMNox); 20% PEG 3350, 0.1 M BIS-TRIS pH 6.5, 0.1 M ammonium sulfate, 5 mg/mL.
Assay [2] has as its target LOV2-C250A single domain of Phot1. The assay is described as follows: crystal structure; LOV2-C250A crystallized in the dark (FMNox).

In turn, “LOV1-C57M-SL-LOV2-C250A fusion protein (short linker) (from UniProt Q8LPD9 17-125)” yielded a stoichiometry N in assay [1] of 2.
“LOV2-C250A single domain of Phot1 (domain or fragment)” showed a stoichiometry N in assay [2] of 2.
